EC50 data for two molecules are collected here from patent publication US20240158537A1 (BRIGHT PEAK THERAPEUTICS, published 2024).

The target of assay [1] is T1, Biotinylated Recombinant Human PD-1 (CD279)-Fc Chimera (carrier-free), Biolegend #789406 (human, UniProt Q15116 25-167, biotinylated (site not stated)).
T1 construct: Bought reagent; also called h-PD1 Fc; Fc part of the bought chimera not given
Kind of assay: ELISA (OD 450 nm): antibody coated on the plate, biotinylated human PD-1-Fc titrated, streptavidin-HRP detection; x axis 'Molecule (nM)'; EC50 table beside the plot. In general terms: In an ELISA, binding on a coated surface is turned into a signal by an enzyme label.

For assay [2], the target named is T1, Biotinylated Recombinant Human PD-1 …. Kind of assay: ELISA (OD 450 nm): immunocytokine coated on the plate, biotinylated human PD-1-Fc titrated, streptavidin-HRP detection; x axis 'Molecule (nM)'; EC50 table beside the plot.
Method: Each of these variant conjugates and unmodified antibodies were assayed by ELISA for their ability to bind to human PD-1 according to the following protocol.
Streptavidin-HRP was Sigma #RABHRP3. TMB solution was 3,3′,5,5′-Tetramethylbenzidine (Sigma T0440). Stop solution was Sigma #CL07STOP solution (0.5M H2SO4). Buffers were: Coating buffer was PBS. Wash buffer was PBS-0.02% Tween20. Blocking buffer was PBS-0.02% Tween20 1% BSA. Protein diluent was PBS-0.02% Tween20 0.1% BSA. STOP solution was 0.5M H2SO4. […] The ELISA plates were washed 4 times with 100 μl PBS—0.02% Tween20. and blocked with PBS—1% BSA. A serial dilution of h-PD1 Fc was prepared and plates were incubated for two hours at 37° C., with shaking (600 rpm). ELISA plates were washed and incubated with Streptavidin-HRP 30 min at RT, with shaking (600 rpm). ELISA plates were washed and incubated with ready-to-use TMB solution. Reaction was stopped and plates were read by OD450 on an Enspire plate reader.

T1 sequence (Q15116 25-167, change not shown): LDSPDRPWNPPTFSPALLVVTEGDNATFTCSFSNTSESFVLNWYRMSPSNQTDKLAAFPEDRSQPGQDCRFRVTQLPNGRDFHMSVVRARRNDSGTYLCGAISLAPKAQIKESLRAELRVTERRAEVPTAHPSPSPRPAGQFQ

B1: LZM-009 (unmodified anti-PD-1 antibody, SEQ ID NOs: 76-77) (antibody, V domains shown)
VH: QVQLVQSGAEVKKPGASVKVSCKASGYTFTSYYMYWVRQAPGQGLEWMGGVNPSNGGTNFNEKFKSRVTITADKSTSTAYMELSSLRSEDTAVYYCARRDYRYDMGFDYWGQGTTVTVSS
VL: EIVLTQSPATLSLSPGERATISCRASKGVSTSGYSYLHWYQQKPGQAPRLLIYLASYLESGVPARFSGSGSGTDFTLTISSLEPEDFATYYCQHSRELPLTFGTGTKVEIK
notes: It was tested as a full antibody with an Fc region (K248, Eu numbering); also called parental antibody
Broadly, the EC50 is the concentration that produces a half-maximal response. In the case of B1, the EC50 in assay [1] turned out to be 0.035 nM.

B2: Composition C (LZM-009-IL-7 conjugate, DAR 1) (other)
VH: B1 VH
VL: B1 VL
chain: DCDIEGKDGKQYESVLXVSIDQLLDSXKEIGSNCLXNEFNFFKRHICDANKEGXFLFRAARKLRQFLKXNSTGDFXLHLLKVSEGTTILLNCTGQVKGRKPAALGEAQPTKSLXENKSLKEQKKLNDLCFLKRLLQEIKTCWNKILXGTKEH
modifications: not fully specified; Nle at 17, 27, 54, 69, 147; Hse at 36, 76, 114; N-terminal amine carries the glutaryl-PEG-azide handle of Composition AA, joined by a chemical linker to K248 of the antibody heavy chain; K248 (Eu numbering) of the Fc region, whose sequence is not given, carries a DBCO linker reacted with the azide of Composition AA (triazole); drug-antibody ratio 1
notes: Chemical conjugate; also called immunocytokine Composition C
As for B2, the 50% effective concentration (EC50) in assay [2] was determined as 0.0348 nM.
